This note sets out measurements from PMC4046963.

For this assay, the target named is Neisseria gonorrhoeae MtrE outer membrane channel (Neisseria gonorrhoeae) (UniProt Q51006). Nature of the assay: crystal structure; sitting-drop vapor diffusion, 20% PEG 400, 0.2 M sodium acetate pH 4.6, 0.25 M MgSO4, 2% OG, 0.05% DDM; space group P6(3)22, one protomer per asymmetric unit; 3.29 Å.

What is called stoichiometry N is the number of molecules, sites or subunits per partner or assembly.

For the substance “Neisseria gonorrhoeae MtrE outer membrane channel (from UniProt Q51006 1-467) (natural protein)”, the stoichiometry N was 3.
